The nature of the data set: total protein half-life in vivo (active degradation + dilution); higher = more stable protein.
The mark [1] stands for this setting: E. coli NCM3722 delta-clpP delta-lon delta-hslV, growth: N-lim chemostat, doubling time 6 h.
The mark [2] stands for this setting: E. coli NCM3722 delta-clpP, growth: N-lim chemostat, doubling time 6 h.
Setting [3] is: E. coli NCM3722 delta-hslV, growth: N-lim chemostat, doubling time 6 h.
Setting [4] is: E. coli NCM3722 delta-lon, growth: N-lim chemostat, doubling time 6 h.
Where [5] appears, read: E. coli NCM3722 delta-smpB, growth: N-lim chemostat, doubling time 6 h.
Where [6] appears, read: wild type E. coli NCM3722, growth: C-lim chemostat, doubling time 3 h.
The mark [7] stands for this setting: wild type E. coli NCM3722, growth: C-lim chemostat, doubling time 6 h.
The mark [8] stands for this setting: wild type E. coli NCM3722, growth: C-lim chemostat, doubling time 12 h.
[9] abbreviates: wild type E. coli NCM3722, growth: N-lim chemostat, doubling time 6 h.
Where [10] appears, read: wild type E. coli NCM3722, growth: N-lim chemostat, doubling time 12 h.
The mark [11] stands for this setting: wild type E. coli NCM3722, growth: P-lim chemostat, doubling time 6 h.
The mark [12] stands for this setting: wild type E. coli NCM3722, growth: P-lim chemostat, doubling time 12 h.

± gives the standard deviation of the averaged measurements.

Consider “MVPSTFSRLKAARCLPVVLAALIFAGCGTHTPDQSTAYMQGTAQADSAFYLQQMQQSSDDTRINWQLLAIRALVKEGKTGQAVELFNQLPQELNDAQRREKTLLAVEIKLAQKDFAGAQNLLAKITPADLEQNQQARYWQAKIDASQGRPSIDLLRALIAQEPLLGAKEKQQNIDATWQALSSMTQEQANTLVINADENILQGWLDLQRVWFDNRNDPDMMKAGIADWQKRYPNNPGAKMLPTQLVNVKAFKPASTNKIALLLPLNGQAAVFGRTIQQGFEAAKNIGTQPVAAQVAAAPAADVAEQPQPQTVDGVASPAQASVSDLTGEQPAAQPVPVSAPATSTAAVSAPANPSAELKIYDTSSQPLSQILSQVQQDGASIVVGPLLKNNVEELLKSNTPLNVLALNQPENIENRVNICYFALSPEDEARDAARHIRDQGKQAPLVLIPRSSLGDRVANAFAQEWQKLGGGTVLQQKFGSTSELRAGVNGGSGIALTGSPITLRATTDSGMTTNNPTLQTTPTDDQFTNNGGRVDAVYIVATPGEIAFIKPMIAMRNGSQSGATLYASSRSAQGTAGPDFRLEMEGLQYSEIPMLAGGNLPLMQQALSAVNNDYSLARMYAMGVDAWSLANHFSQMRQVQGFEINGNTGSLTANPDCVINRNLSWLQYQQGQVVPVS”, for which the “total protein half-life in vivo” value worked out at 5.639 ± 0.023 h under setting [1]; 5.812 ± 0.034 h under setting [2]; 5.89 ± 0.37 h under setting [3]; 6.49 ± 0.16 h under setting [4]; 6.45 ± 0.83 h under setting [5]; 3.11 ± 0.16 h under setting [6]. Moreover, the “total protein half-life in vivo” value reads like this: under setting [7], 5.614 ± 0.025 h; under setting [8], 11.2 ± 1 h; under setting [9], 6.03 ± 0.11 h; under setting [10], 13.1 ± 1.8 h; under setting [11], 5.91 ± 0.45 h; under setting [12], 11.5 ± 0.52 h.

“MSMVETAPSKIQVRNLNFYYGKFHALKNINLDIAKNQVTAFIGPSGCGKSTLLRTFNKMFELYPEQRAEGEILLDGDNILTNSQDIALLRAKVGMVFQKPTPFPMSIYDNIAFGVRLFEKLSRADMDERVQWALTKAALWNETKDKLHQSGYSLSGGQQQRLCIARGIAIRPEVLLLDEPCSALDPISTGRIEELITELKQDYTVVIVTHNMQQAARCSDHTAFMYLGELIEFSNTDDLFTKPAKKQTEDYITGRYG [P0AAH0]”: the “total protein half-life in vivo” value under setting [1] was 5.28 ± 0.14 h; the “total protein half-life in vivo” value under setting [3] amounted to 4.78 ± 0.28 h; the “total protein half-life in vivo” value under setting [4] was found to be 5.5 ± 0.56 h; the “total protein half-life in vivo” value under setting [5] was found to be 4.68 ± 0.39 h; the “total protein half-life in vivo” value under setting [6] worked out at 3.05 ± 0.094 h; the “total protein half-life in vivo” value under setting [8] is 9.16 ± 0.51 h. The “total protein half-life in vivo” value under setting [9] came to 4.81 ± 0.24 h, the “total protein half-life in vivo” value under setting [10] was 9.09 ± 0.47 h, the “total protein half-life in vivo” value under setting [11] came out at 5.49 ± 0.53 h and the “total protein half-life in vivo” value under setting [12] turned out to be 12.1 ± 0.36 h.

In the case of “MEKENITIDPRSSFTPSSSADIPVPPDGLVQRSTRIKRIQTTAMLLLFFAAVINYLDRSSLSVANLTIREELGLSATEIGALLSVFSLAYGIAQLPCGPLLDRKGPRLMLGLGMFFWSLFQAMSGMVHNFTQFVLVRIGMGIGEAPMNPCGVKVINDWFNIKERGRPMGFFNAASTIGVAVSPPILAAMMLVMGWRGMFITIGVLGIFLAIGWYMLYRNREHVELTAVEQAYLNAGSVNARRDPLSFAEWRSLFRNRTMWGMMLGFSGINYTAWLYLAWLPGYLQTAYNLDLKSTGLMAAIPFLFGAAGMLVNGYVTDWLVKGGMAPIKSRKICIIAGMFCSAAFTLIVPQATTSMTAVLLIGMALFCIHFAGTSCWGLIHVAVASRMTASVGSIQNFASFICASFAPIITGFIVDTTHSFRLALIICGCVTAAGALAYIFLVRQPINDPRKD”, the “total protein half-life in vivo” value under setting [8] came to 5.28 h.

As to “MLTEQQRRELDWEKTDGLMPVIVQHAVSGEVLMLGYMNPEALDKTLESGKVTFFSRTKQRLWTKGETSGNFLNVVSIAPDCDNDTLLVLANPIGPTCHKGTSSCFGDTAHQWLFLYQLEQLLAERKSADPETSYTAKLYASGTKRIAQKVGEEGVETALAATVHDRFELTNEASDLMYHLLVLLQDQGLDLTTVIENLRKRHQ”, the “total protein half-life in vivo” value under setting [1] was 5.08 ± 0.17 h; the “total protein half-life in vivo” value under setting [2] is 4.38 ± 0.43 h; the “total protein half-life in vivo” value under setting [3] was found to be 5.44 ± 1.4 h; the “total protein half-life in vivo” value under setting [4] was determined as 4.24 ± 0.072 h; the “total protein half-life in vivo” value under setting [5] was 4.046 ± 0.0072 h; the “total protein half-life in vivo” value under setting [6] is 2.92 ± 0.14 h. The “total protein half-life in vivo” value worked out at 5.63 ± 1 h under setting [7], 4.51 ± 0.3 h under setting [9], 6.795 ± 0.027 h under setting [10] and 12.9 ± 3.1 h under setting [12].

For “MTVPTYDKFIEPVLRYLATKPEGAAARDVHEAAADALGLDDSQRAKVITSGQLVYKNRAGWAHDRLKRAGLSQSLSRGKWCLTPAGFDWVASHPQPMTEQETNHLAFAFVNVKLKSRPDAVDLDPKADSPDHEELAKSSPDDRLDQALKELRDAVADEVLENLLQVSPSRFEVIVLDVLHRLGYGGHRDDLQRVGGTGDGGIDGVISLDKLGLEKVYVQAKRWQNTVGRPELQAFYGALAGQKAKRGVFITTSGFTSQARDFAQSVEGMVLVDGERLVHLMIENEVGVSSRLLKVPKLDMDYFE”, the “total protein half-life in vivo” value turned out to be 5.65 ± 1.1 h under setting [1]; 4.02 ± 0.13 h under setting [2]; 3.84 ± 0.13 h under setting [3]; 4.33 ± 0.27 h under setting [4]; 3.561 ± 0.012 h under setting [5]; 2.94 ± 0.055 h under setting [6]. In addition, the “total protein half-life in vivo” value was 4.88 ± 0.19 h under setting [7]; 10.48 ± 0.072 h under setting [8]; 3.599 ± 0.011 h under setting [9]; 7.77 ± 3.8 h under setting [10]; 4.92 ± 0.1 h under setting [11]; 10.4 ± 0.31 h under setting [12].

As for “MRIGQYQLRNRLIAAPMAGITDRPFRTLCYEMGAGLTVSEMMSSNPQVWESDKSRLRMVHIDEPGIRTVQIAGSDPKEMADAARINVESGAQIIDINMGCPAKKVNRKLAGSALLQYPDVVKSILTEVVNAVDVPVTLKIRTGWAPEHRNCEEIAQLAEDCGIQALTIHGRTRACLFNGEAEYDSIRAVKQKVSIPVIANGDITDPLKARAVLDYTGADALMIGRAAQGRPWIFREIQHYLDTGELLPPLPLAEVKRLLCAHVRELHDFYGPAKGYRIARKHVSWYLQEHAPNDQFRRTFNAIEDASEQLEALEAYFENFA [P0ABT5]”, the “total protein half-life in vivo” value came out at 4.65 ± 0.67 h under setting [1]; 3.28 h under setting [2]; 2.21 ± 0.077 h under setting [5]; 2.88 ± 0.28 h under setting [6]; 3.67 ± 0.67 h under setting [7]; 6.75 ± 0.78 h under setting [8]. The “total protein half-life in vivo” value runs as follows: under setting [9], 2.23 h; under setting [10], 3.47 h; under setting [11], 5.13 ± 0.28 h; under setting [12], 8.25 ± 0.84 h.

As to “MSIYKIPLPLNILEAARERITWTLNTLPRVCVSFSGGKDSGLMLHLTAELARQMGKKICVLFIDWEAQFSCTINYVQSLRELYTDVIEEFYWVALPLTTQNSLSQYQPEWQCWEPDVEWVRQPPQDAITDPDFFCFYQPGMTFEQFVREFAEWFSQKRPAAMMIGIRADESYNRFVAIASLNKQRFADDKPWTTAAPGGHSWYIYPIYDWKVADIWTWYANHQSLCNPLYNLMYQAGVPLRHMRICEPFGPEQRQGLWLYHVIEPDRWAAMCARVSGVKSGGIYAGHDNHFYGHRKILKPEHLDWQEYALLLLNSMPEKTAEHYRNKIAIYLHWYQKKGIEVPQTQQGDIGAKDIPSWRRICKVLLNNDYWCRALSFSPTKSKNYQRYNERIKGKRQEWGILCNND”, the “total protein half-life in vivo” value runs as follows: under setting [1], 5.55 h; under setting [3], 6.21 h; under setting [4], 4.82 h.

“MLVYWLDIVGTAVFAISGVLLAGKLRMDPFGVLVLGVVTAVGGGTIRDMALDHGPVFWVKDPTDLVVAMVTSMLTIVLVRQPRRLPKWMLPVLDAVGLAVFVGIGVNKAFNAEAGPLIAVCMGVITGVGGGIIRDVLAREIPMILRTEIYATACIIGGIVHATAYYTFSVPLETASMMGMVVTLLIRLAAIRWHLKLPTFALDENGR [P0AFP0]”: the “total protein half-life in vivo” value is, setting by setting: under setting [1], 6.04 h; under setting [2], 5.6 h; under setting [6], 2.95 h; under setting [8], 9.77 h.

For “MNIQCKRVYDPAEQSDGYRILVDRLWPRGIKKTDLALDEWDKEITPSTELRKAFHGEVVDYATFREQYLAELAQHEQEGKRLADIAKKQPLTLLYSAKNTTQNHALVLADWLRSL”, the “total protein half-life in vivo” value runs as follows: under setting [1], 6.74 ± 1.5 h; under setting [2], 5.27 h; under setting [3], 3.16 ± 0.34 h; under setting [4], 4.88 ± 0.48 h; under setting [5], 3.51 ± 0.47 h; under setting [6], 2.37 ± 0.59 h. For the same sequence, the “total protein half-life in vivo” value reads like this: under setting [7], 4.57 h; under setting [8], 4.54 ± 0.79 h; under setting [9], 3.27 h; under setting [10], 4.71 h; under setting [11], 3.11 h; under setting [12], 5.24 ± 1.4 h.

Regarding “MYDFNLVLLLLQQMCVFLVIAWLMSKTPLFIPLMQVTVRLPHKFLCYIVFSIFCIMGTWFGLHIDDSIANTRAIGAVMGGLLGGPVVGGLVGLTGGLHRYSMGGMTALSCMISTIVEGLLGGLVHSILIRRGRTDKVFNPITAGAVTFVAEMVQMLIILAIARPYEDAVRLVSNIAAPMMVTNTVGAALFMRILLDKRAMFEKYTSAFSATALKVAASTEGILRQGFNEVNSMKVAQVLYQELDIGAVAITDREKLLAFTGIGDDHHLPGKPISSTYTLKAIETGEVVYADGNEVPYRCSLHPQCKLGSTLVIPLRGENQRVMGTIKLYEAKNRLFSSINRTLGEGIAQLLSAQILAGQYERQKAMLTQSEIKLLHAQVNPHFLFNALNTIKAVIRRDSEQASQLVQYLSTFFRKNLKRPSEFVTLADEIEHVNAYLQIEKARFQSRLQVNIAIPQELSQQQLPAFTLQPIVENAIKHGTSQLLDTGRVAISARREGQHLMLEIEDNAGLYQPVTNASGLGMNLVDKRLRERFGDDYGISVACEPDSYTRITLRLPWRDEA [P0AD14]”, the “total protein half-life in vivo” value amounted to 2.82 ± 0.28 h under setting [6]; 5.37 ± 0.45 h under setting [7]; 10.9 ± 0.79 h under setting [8]; 6.05 ± 0.33 h under setting [11]; 11.1 ± 1.1 h under setting [12].

Regarding “MDLSQLTPRRPYLLRAFYEWLLDNQLTPHLVVDVTLPGVQVPMEYARDGQIVLNIAPRAVGNLELANDEVRFNARFGGIPRQVSVPLAAVLAIYARENGAGTMFEPEAAYDEDTSIMNDEEASADNETVMSVIDGDKPDHDDDTHPDDEPPQPPRGGRPALRVVK [P0AFZ3]”, the “total protein half-life in vivo” value was found to be 5.705 ± 0.0087 h under setting [1]; 4.58 ± 0.2 h under setting [2]; 3.9 ± 0.61 h under setting [3]; 3.43 ± 0.19 h under setting [5]; 2.69 ± 0.14 h under setting [6]; 5.89 ± 0.079 h under setting [7]. For the same sequence, the “total protein half-life in vivo” value runs as follows: under setting [8], 7.4 ± 0.38 h; under setting [9], 3.26 h; under setting [10], 6.17 ± 3 h; under setting [11], 3.73 ± 0.69 h; under setting [12], 7.51 ± 0.57 h.

The values above are taken from the supplement of paper PMC11246515.
